Results as given in patent EP2289541A1.

Target: low density lipoprotein receptor-related protein (LRP)
Experiment: cell-based or functional assay
[1] = scale: % of passage versus filter for alteplase alone

With “DSPAα1 (Desmoteplase) (from UniProt P98119 37-477) (enzyme)” the % of abluminal alteplase (alteplase transport across in vitro BBB, zymography assay; alteplase 0.3 µM and DSPAalpha1 0.3 µM) (% of abluminal alteplase alone) was 46.6 and the alteplase (% of passage versus filter) (alteplase translocation across in vitro BBB, spectrozyme assay; alteplase 0.3 µM and DSPAalpha1 0.3 µM) [1] was 67.

Substance “DSPAα2 (from UniProt P15638 37-477) (enzyme)” has a % of abluminal alteplase (alteplase transport across in vitro BBB, zymography assay; alteplase 0.3 µM and DSPAalpha 2 0.3 µM) (% of abluminal alteplase alone) of 25.1 and an alteplase (% of passage versus filter) (alteplase translocation across in vitro BBB, spectrozyme assay; alteplase 0.3 µM and DSPAalpha2 0.3 µM) [1] of 61.9.

Work on “Reteplase (from UniProt P00750 36-562) (enzyme)” yielded a % of abluminal alteplase (alteplase transport across in vitro BBB, zymography assay; alteplase 0.3 µM and Reteplase 0.3 µM) (% of abluminal alteplase alone) of 51.6.
